Values quoted from earlier work as cited in article PMC4896244.

Molecular target: Connexin 43 CT (UniProt P23242)
Sequence of UniProt P23242 (P23242 255-382): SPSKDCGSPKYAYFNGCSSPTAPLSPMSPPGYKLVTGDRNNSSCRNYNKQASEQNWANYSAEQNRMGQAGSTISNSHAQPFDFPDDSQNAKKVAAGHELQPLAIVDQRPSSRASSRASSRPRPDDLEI

CIP75 UBA (from UniProt Q99NB8)
Kd: 300 µM
